# Results taken from patent publication US20080070264A1, “Intracellular Signaling-Induced Ret-Independent Gdnf Receptor-Effected Morphological Changes” (JPMORGAN CHASE BANK N.A., priority 2003, published 2008).
# “Also recorded” adds a separate entry of the source.
# How the values were obtained:
# MET [1] = assay: MET activation in GFRα1-transfected NIH 3T3 fibroblasts; format: cell-based
# [2] = tested on: ret −/−, ret +/− and ret +/+ kidney explants; assay: Ureteric branching in cultured E11 urogenital block explants; set-up: species or system mouse
# Protocol: FIG. 8A-FIG. 8D: Urogenital blocks including the Wolffian duct (wd), mesonephros (meso) and metanephros (meta) were dissected from E11 ret −/− (panels A, B), ret +/− (panel C) and ret +/+ (panel D) mouse embryos. The two urogenital blocks from the embryos were separately cultured for 4 days. One side was cultured without GDNF (panels A, C, D) and the other side with 50 ng/ml of GDNF (panel B). Urogenital block explants were fixed and immunostained with pan-cytokeratin antibodies. Scale bar: 200 μm.
# FIG. 8E: The number of ureteric branches of ret −/−, ret +/− and ret +/+ kidneys with or without GDNF supplementation. Numbers in parenthesis indicate the kidney explants counted. […] Each result represents the mean±SEM (n=5).
# To analyze the possible role of RET-independent, GFRα1-mediated signaling in ureteric budding and branching during nephrogenesis, the ability of exogenous GDNF to induce ureteric budding or sustain its branching in ret-deficient mice was tested. E11 ret −/− urogenital blocks including kidney rudiments were cultured for 4 days with or without 50 ng/ml of GDNF (FIG. 8). […] Thus, RET-independent signaling by GDNF has an apparent role in the ureteric branching, but may be less significant in the primary bud formation.
# [3] = tested on: RET/GFRα1-expressing MDCK cells; assay: Chemoattraction assay on collagen matrix with soaked agarose beads; format: cell-based, dog; conditions: beads soaked in GDNF 10 ng/μl; collagen I; 3 days
# Text: (§1) FIG. 3B: Chemoattraction assay on collagen matrix. Only RET/GFRα1-expressing cells migrate towards GDNF-soaked agarose beads. BSA-soaked agarose beads were used as negative controls. Agarose beads are denoted by white circles. Note that mock transfected, GFRα1-expressing and RET/GFRα1-expressing cells form clusters of adherent cells (denoted by arrowhead) with BSA-soaked beads after 3 days, whereas RET/GFRα1 cells migrating towards GDNF bead are dissociated.
# (§2) 3.5 cm dishes were coated with collagen I solution and 20,000 cells were seeded on the coated dish. GDNF-soaked agarose beads, prepared as described (Sainio et al., 1997), were put on the gel before it solidified. Cells around the beads were photographed daily.
# (§3) In another chemotaxis assay, RET/GFRα1-, GFRα1- and mock-transfected MDCK cells were seeded on culture dishes coated with collagen I. Agarose beads were soaked in GDNF (10 ng/μl) or 1% BSA. A bead was placed on top of the soft collagen, and cells were monitored for 3 days.
# [4] = tested on: GFRα1-expressing, RET deficient MDCK cells; assay: as above; format: cell-based, dog; conditions: beads soaked in GDNF 10 ng/μl; collagen I; 3 days
# Text: as §1, §2, §3
# [5] = tested on: mock-transfected MDCK cells; assay: as above; format: cell-based, dog; conditions: beads soaked in GDNF 10 ng/μl; collagen I; 3 days
# Text: as §1, §2, §3
# MET [6] = assay: MET phosphorylation in Neuro-2A neuroblastoma cells; format: cell-based
# MET [7] = molecular target: T1, MET (Chlorocebus aethiops, UniProt Q2IBA6); assay: 125I-labelled GDNF and HGF binding, chemical crosslinking, anti-MET immunoprecipitation; conditions: RET/GFRα1-expressing MDCK cells; data not shown
# T1 construct: different combinations of the MET β-subunit (140 kDa), Met-αβ heterodimer (190 kDa) and HGF complexes; endogenous in cells; host or cells: COS7 cells (wild type for 125I-HGF; transfected with pc3-GFRα1/GFP for 125I-GDNF)
# T1 sequence (Q2IBA6 25-1381): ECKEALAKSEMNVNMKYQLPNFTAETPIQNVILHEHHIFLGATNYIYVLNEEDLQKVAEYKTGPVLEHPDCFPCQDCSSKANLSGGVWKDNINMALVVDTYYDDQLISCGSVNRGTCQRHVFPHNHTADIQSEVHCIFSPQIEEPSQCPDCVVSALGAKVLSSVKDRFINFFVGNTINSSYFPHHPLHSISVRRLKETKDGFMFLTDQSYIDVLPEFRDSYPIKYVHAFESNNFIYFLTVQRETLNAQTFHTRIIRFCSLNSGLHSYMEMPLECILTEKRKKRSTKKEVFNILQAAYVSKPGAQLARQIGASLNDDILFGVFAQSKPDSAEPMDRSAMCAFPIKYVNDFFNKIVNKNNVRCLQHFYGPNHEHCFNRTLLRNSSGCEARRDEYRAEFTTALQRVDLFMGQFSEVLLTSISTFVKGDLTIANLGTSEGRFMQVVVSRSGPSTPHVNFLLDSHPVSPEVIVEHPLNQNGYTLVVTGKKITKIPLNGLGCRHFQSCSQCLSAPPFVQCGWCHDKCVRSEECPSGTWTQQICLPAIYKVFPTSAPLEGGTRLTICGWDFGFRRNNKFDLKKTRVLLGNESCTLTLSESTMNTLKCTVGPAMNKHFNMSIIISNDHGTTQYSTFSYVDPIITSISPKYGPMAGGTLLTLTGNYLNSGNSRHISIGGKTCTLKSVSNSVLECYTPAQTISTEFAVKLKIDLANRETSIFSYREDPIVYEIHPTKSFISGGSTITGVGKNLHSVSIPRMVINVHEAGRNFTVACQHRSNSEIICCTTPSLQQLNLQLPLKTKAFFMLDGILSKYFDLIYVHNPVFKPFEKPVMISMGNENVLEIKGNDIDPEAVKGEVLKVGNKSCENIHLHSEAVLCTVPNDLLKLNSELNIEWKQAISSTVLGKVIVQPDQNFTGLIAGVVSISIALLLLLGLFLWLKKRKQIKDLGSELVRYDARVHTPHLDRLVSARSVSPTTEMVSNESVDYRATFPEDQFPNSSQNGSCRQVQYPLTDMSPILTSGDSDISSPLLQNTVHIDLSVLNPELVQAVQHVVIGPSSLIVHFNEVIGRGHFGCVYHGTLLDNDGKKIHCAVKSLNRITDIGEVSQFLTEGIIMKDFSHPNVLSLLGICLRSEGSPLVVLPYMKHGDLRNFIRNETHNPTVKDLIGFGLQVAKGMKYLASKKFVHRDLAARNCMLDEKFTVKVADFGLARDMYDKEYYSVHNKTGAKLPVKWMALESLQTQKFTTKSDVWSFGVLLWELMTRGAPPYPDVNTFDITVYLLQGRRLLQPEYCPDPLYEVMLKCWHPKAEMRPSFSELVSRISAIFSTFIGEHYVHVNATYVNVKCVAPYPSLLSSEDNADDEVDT
# Protocol: Binding of ^125I-GDNF to COS7 cells transfected with GFRα1, and ^125-HGF to wild-type COS7, followed by cross-linking with EDC together with sulfo-NHS. Inmunoprecipitates with anti-MET antibodies (IP-Met) were analysed by SDS-PAGE under reducing conditions. ^125I-HGF α subunit and proHGF are marked by arrows. ^125I-HGF/MET complexes are denoted by arrow heads. The results are representative of five independent experiments.
# GDNF and HGF were enzymatically iodinated with [^125I]NaI (Amersham Pharmacia Biotech) with lactoperoxidase to a specific activity of 100.000 cpm/ng as described (31). COS7 cells were transfected with pc3-GFRα1/GFP two days prior the assay. 2 nM of ^125I-GDNF or 1 nM of ^125I-HGF were allowed to bind to cell monolayers for 1-2 h on ice in binding buffer (DMEM/15 mM HEPES, pH 7.5; 0.2% BSA), washed, and chemically cross-linked for 30 min at room temperature using BS^3 ([Bis(sulfosuccinimidyl)suberate]), DSS ((Disulfosuccinimidyl)suberate), DSP (3,3-Dithio-bis-(sulfosuccinimidyl)propionate) or EDC ((1-Ethyl-3-[3-dimethylaminopropyl]carbodiimide Hydrochloride)) with sulfo-NHS (N-Hydroxysulfosuccinimide) (Pierce). The non-specific binding of GDNF was estimated by the amount of ^125I-GDNF binding to cells in the presence of 300 n M unlabeled GDNF. Cells were washed, lysed and immunoprecipitated with anti-MET antibodies as described. Gels were dried and analyzed by phosphorimaging in a BAS Reader 1800 (Fuji).
# MET [8] = assay: MET activation in GFRα1-transfected COS7 cells; format: cell-based
# RET = molecular target: T2, RET (UniProt P07949+Q62997); assay: RET phosphorylation in RET/GFRα1-expressing MDCK cells; format: cell-based, dog
# T2 construct: expressed in transfected cells
# T2 sequence (P07949 29-1114): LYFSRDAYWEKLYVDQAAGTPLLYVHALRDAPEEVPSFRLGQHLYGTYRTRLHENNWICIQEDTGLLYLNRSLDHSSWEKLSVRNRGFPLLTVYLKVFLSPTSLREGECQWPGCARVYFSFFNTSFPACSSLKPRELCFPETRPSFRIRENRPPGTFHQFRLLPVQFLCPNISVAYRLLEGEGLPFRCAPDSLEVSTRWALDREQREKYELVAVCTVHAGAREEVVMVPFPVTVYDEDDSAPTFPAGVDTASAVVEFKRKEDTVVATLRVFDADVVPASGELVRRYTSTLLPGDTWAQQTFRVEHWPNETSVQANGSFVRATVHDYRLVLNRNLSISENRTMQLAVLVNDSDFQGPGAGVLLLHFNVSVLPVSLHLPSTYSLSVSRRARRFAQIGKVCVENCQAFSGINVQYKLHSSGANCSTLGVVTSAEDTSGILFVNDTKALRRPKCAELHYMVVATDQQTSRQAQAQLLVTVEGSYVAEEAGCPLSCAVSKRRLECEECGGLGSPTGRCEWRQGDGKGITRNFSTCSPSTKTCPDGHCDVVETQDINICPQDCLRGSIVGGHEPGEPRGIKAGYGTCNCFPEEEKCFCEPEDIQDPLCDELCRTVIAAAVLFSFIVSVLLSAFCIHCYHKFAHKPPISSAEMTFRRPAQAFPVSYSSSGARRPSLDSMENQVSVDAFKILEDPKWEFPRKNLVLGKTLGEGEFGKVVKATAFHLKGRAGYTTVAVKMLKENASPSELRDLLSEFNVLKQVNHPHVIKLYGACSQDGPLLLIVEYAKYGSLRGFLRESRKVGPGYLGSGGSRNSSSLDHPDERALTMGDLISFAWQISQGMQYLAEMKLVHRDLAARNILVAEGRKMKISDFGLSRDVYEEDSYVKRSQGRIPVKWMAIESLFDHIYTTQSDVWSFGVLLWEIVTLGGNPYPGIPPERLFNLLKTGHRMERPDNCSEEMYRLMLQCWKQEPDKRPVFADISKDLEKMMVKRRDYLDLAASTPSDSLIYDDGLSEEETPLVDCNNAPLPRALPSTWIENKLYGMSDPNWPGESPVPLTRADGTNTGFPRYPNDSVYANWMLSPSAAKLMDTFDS
# T2 sequence (Q62997 25-430 limits assumed): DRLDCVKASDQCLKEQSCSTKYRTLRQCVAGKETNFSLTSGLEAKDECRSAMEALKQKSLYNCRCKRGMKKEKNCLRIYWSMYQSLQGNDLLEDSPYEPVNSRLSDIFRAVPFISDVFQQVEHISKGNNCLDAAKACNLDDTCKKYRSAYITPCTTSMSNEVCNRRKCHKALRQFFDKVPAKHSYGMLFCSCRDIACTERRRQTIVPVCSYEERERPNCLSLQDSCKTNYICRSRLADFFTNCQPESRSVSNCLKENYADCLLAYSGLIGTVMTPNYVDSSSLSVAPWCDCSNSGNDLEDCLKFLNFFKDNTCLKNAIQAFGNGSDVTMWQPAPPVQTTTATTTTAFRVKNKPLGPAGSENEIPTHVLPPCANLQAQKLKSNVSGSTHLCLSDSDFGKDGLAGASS
# Protocol: FIG. 4D: Dose-dependent activation of RET by GDNF in RET/GFRα1-expressing MDCK cells. […]. […] The numbers below the lanes indicate the fold of induction of RET tyrosine kinase. IP, immunoprecipitation; WB, Western blotting; P-tyr, phospho-tyrosine. The results are representative of three independent experiments.
# To detect MET activation, GFRα1- and RET/GFRα1-expressing MDCK or SHEP cells were starved overnight in MEM or RPMI 1640 with 1% FCS, respectively, and in serum-free medium for 2 h prior the induction. After 15 min incubation at 37° C. with GDNF (at indicated concentrations) or with 50 ng/ml HGF, cells were lysed as described. Cleared cell lysates were incubated with anti-MET antibodies (Santa Cruz Biotechnologies, Inc.) overnight at 4° C. Immunoprecipitates were collected with protein A-SEPHAROSE (Amersham Pharmacia Biotech), washed, separated by SDS-PAGE and transferred to HYBOND-ECL membranes. Membranes were immunoblotted with anti-phospho-tyrosine antibodies (Upstate Group Inc.) or anti-MET antibodies.
# The above procedure was also followed to detect RET phosphorylation in RET/GFRα1-expressing MDCK, however, for these experiments, anti-RET antibodies (Santa Cruz Biotechnologies, Inc.) were used for the immunoprecipitation and immunoblotting.
molecule,measurement,setting,value
"GDNF: recombinant glial cell line-derived neurotrophic factor from Cephalon Inc. (baculovirus-infected insect cells) or R&D Systems, Inc. (mouse myeloma NSO) (protein, UniProt P39905 78-211, looked up) Glial cell line-derived …: SPDKQMAVLPRRERNRQAAAANPENSRGKGRRGQRGKNRGCVLTAIHLNVTDLGLGYETKEELIFRYCSGSCDAAETTYDKILKNLSRNRRLVSDKVGQACCRPIAFDDDLSFLDDNLVYHILRKHSAKRCGCI",MET activation,MET [1],takes place
same,number of ureteric bud tips,"[2]; ret +/− explants, GDNF 50 ng/ml, 4 days culture",increased the number of ureteric bud tips
same,number of ureteric bud tips / ureteric branching,"[2]; ret −/− explants, GDNF 50 ng/ml, 4 days culture",increased but not to the level seen in wild type kidneys; also recorded: significantly increased ureteric branching
same,number of urogenital explants completely lacking a ureteric bud,"[2]; ret −/− explants, with or without exogenous GDNF",remained the same
same,number of ureteric bud tips,"[2]; wild-type explants, GDNF 50 ng/ml, 4 days culture",increased the number of ureteric bud tips
same,migration towards soaked agarose bead,[3],actively migrated towards the source of GDNF
same,migration towards soaked agarose bead,[4],"Neither GFRα1-expressing, RET deficient cells nor mock-transfected cells, however, were attracted"
same,migration towards soaked agarose bead,[5],"Neither GFRα1-expressing, RET deficient cells nor mock-transfected cells, however, were attracted"
same,MET phosphorylation,MET [6],induced MET phosphorylation
same,direct association of the GDNF receptor complex and MET,MET [7],no direct association
same,MET activation,MET [8],takes place
same,GDNF concentration at which RET phosphorylation reached saturation,RET,10 ng/mL
same,GDNF concentration at which RET phosphorylation was observed,RET,0.1 pg/mL
same,time to RET activation,RET; data not shown,≥ 2 h
